Assay results published in the supplement of paper PMC10065799, “High-throughput profiling of sequence recognition by tyrosine kinases and SH2 domains using bacterial peptide display” (eLife, 2023).

Columns and labels:
[1] = system: AncSZ; assay: phosphorylation enrichment, bacterial display (enrichment ratio); higher = better substrate or ligand; peptides without Tyr show the background
[2] = target: Jak2 (UniProt O60674); assay: as above
[3] = target: EPHB1 (UniProt P54762); assay: as above
[4] = system: Fer (mouse); assay: as above
[5] = target: Fes (UniProt P07332); assay: as above
Fes, sequence (P07332 whole entry, looked up): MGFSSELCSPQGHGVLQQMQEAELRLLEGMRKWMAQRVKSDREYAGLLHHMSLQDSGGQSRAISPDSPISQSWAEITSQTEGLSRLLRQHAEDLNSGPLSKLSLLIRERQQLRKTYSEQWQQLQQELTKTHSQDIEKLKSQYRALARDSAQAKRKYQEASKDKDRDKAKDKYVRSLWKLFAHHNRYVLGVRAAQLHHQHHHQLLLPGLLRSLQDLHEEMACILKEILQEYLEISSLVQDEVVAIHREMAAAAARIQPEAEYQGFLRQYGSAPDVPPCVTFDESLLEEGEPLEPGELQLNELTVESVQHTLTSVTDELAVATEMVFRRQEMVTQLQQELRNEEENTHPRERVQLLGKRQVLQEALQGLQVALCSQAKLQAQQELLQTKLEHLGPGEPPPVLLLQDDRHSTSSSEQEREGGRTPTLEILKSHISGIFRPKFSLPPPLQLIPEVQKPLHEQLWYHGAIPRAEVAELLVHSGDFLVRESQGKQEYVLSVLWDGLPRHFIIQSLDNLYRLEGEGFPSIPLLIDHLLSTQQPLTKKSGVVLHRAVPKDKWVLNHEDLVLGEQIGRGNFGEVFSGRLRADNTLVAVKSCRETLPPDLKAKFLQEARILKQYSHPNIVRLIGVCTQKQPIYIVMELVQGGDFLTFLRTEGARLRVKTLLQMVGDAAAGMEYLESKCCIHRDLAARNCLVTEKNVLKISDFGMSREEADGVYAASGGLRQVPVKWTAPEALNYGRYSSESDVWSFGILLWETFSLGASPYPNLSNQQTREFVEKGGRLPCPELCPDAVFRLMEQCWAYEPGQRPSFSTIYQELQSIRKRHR

[6] = target: Fyn (UniProt P06241); assay: as above
[7] = target: FGFR3 (UniProt P22607); assay: as above
[8] = target: Hck (UniProt P08631); assay: as above
Hck, sequence (P08631 whole entry, looked up): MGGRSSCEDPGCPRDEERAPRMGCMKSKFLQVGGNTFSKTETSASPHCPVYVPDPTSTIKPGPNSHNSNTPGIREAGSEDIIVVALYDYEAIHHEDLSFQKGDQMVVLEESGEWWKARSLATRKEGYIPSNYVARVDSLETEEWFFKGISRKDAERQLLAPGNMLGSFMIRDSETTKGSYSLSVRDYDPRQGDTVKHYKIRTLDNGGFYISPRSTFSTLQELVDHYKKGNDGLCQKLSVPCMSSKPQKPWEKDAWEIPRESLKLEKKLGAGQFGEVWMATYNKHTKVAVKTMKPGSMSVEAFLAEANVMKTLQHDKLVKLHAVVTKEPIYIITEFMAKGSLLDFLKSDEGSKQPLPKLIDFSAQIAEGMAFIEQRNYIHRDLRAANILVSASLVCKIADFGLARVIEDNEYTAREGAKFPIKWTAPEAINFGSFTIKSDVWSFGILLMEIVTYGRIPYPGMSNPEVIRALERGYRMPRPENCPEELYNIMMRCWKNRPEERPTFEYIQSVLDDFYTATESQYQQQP

[9] = target: EPHB2 (UniProt P29323); assay: as above
EPHB2, sequence (P29323 whole entry, looked up): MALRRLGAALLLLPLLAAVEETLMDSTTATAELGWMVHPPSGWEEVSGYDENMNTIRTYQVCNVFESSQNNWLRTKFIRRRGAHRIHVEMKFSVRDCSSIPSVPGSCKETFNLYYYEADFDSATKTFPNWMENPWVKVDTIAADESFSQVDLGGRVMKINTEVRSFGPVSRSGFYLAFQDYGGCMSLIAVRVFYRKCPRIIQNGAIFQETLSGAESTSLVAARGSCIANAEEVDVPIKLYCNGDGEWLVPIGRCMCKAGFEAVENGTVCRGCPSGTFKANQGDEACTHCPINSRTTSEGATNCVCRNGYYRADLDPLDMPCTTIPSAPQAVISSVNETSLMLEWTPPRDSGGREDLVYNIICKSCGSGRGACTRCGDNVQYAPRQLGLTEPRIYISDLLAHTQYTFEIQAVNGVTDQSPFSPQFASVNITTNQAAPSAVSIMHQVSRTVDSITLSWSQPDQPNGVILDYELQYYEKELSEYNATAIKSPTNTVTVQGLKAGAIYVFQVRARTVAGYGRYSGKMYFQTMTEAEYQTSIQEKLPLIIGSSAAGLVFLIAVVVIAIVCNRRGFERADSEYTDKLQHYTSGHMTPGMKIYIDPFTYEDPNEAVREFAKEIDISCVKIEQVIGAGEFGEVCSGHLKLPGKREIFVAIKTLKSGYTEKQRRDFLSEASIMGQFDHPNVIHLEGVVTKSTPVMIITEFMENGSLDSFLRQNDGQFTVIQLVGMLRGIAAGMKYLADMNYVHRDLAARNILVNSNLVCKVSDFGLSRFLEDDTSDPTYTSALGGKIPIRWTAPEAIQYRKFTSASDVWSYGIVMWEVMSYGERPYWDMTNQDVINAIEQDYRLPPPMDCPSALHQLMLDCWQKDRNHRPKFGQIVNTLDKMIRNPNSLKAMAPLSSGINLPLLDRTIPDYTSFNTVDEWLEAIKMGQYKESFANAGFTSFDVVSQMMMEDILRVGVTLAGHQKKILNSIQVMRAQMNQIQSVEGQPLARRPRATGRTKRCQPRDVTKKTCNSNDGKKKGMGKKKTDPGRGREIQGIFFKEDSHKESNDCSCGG

[10] = target: FGFR1 (UniProt P11362); assay: as above
[11] = system: c-Src; assay: as above
[12] = system: c-Abl (mouse); assay: as above
[13] = target: MERTK (UniProt Q12866); assay: as above
MERTK, sequence (Q12866 whole entry, looked up): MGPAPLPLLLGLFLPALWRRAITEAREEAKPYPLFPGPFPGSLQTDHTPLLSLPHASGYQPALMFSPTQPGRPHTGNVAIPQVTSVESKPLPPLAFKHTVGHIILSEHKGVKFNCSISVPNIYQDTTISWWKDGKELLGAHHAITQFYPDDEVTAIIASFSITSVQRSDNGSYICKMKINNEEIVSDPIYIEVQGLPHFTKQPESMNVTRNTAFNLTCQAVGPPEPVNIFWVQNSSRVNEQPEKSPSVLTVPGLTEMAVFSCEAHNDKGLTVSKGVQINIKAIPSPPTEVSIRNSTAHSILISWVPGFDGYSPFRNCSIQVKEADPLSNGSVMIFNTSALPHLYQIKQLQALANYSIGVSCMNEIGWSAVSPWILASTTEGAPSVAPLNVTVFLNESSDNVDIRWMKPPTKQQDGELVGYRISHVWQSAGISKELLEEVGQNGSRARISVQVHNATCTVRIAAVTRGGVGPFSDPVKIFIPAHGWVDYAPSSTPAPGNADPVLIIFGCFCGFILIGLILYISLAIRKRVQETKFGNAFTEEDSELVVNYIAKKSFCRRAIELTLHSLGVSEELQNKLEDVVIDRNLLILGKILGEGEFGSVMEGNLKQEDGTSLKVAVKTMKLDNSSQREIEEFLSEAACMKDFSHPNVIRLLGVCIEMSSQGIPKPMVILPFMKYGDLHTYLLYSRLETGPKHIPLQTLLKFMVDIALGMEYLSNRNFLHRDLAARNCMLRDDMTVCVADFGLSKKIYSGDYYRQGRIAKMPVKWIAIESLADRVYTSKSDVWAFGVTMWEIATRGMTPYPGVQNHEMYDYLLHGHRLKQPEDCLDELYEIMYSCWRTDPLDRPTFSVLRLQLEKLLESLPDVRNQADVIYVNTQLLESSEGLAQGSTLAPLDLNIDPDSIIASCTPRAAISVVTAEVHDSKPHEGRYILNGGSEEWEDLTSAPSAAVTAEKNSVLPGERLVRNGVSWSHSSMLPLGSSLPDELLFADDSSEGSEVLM

[14] = target: c-Src SH2; assay: SH2 binding enrichment of the phosphorylated peptide, bacterial display (enrichment ratio); higher = better substrate or ligand; peptides without Tyr show the background
[15] = target: SHP2-C SH2; assay: as above
[16] = target: Grb2 SH2 (UniProt P62993); assay: as above
Grb2 SH2, sequence (P62993 whole entry, looked up, the tested form may be a part): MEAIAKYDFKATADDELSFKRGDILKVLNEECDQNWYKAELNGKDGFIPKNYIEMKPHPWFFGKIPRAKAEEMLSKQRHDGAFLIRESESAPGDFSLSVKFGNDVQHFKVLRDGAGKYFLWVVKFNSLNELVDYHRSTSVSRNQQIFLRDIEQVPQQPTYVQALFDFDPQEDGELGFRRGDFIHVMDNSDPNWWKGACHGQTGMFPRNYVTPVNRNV
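For SH2 binding enrichment of the phosphorylated peptide, bacterial display in this document: peptide library displayed on the E. coli surface as eCPX fusions, selected cells deep-sequenced, score is each peptide's frequency after selection divided by its frequency in the input.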
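For phosphorylation enrichment, bacterial display in this document: 11-residue human phosphosite peptides and single-mutation variants displayed on the E. coli surface, counted by deep sequencing, each peptide's frequency after selection divided by its frequency in the unselected input library; frequency after pTyr selection over input frequency; kinase dosed for 20-30% of maximal phosphorylation in three min.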

Jak2, sequence (O60674 whole entry, looked up): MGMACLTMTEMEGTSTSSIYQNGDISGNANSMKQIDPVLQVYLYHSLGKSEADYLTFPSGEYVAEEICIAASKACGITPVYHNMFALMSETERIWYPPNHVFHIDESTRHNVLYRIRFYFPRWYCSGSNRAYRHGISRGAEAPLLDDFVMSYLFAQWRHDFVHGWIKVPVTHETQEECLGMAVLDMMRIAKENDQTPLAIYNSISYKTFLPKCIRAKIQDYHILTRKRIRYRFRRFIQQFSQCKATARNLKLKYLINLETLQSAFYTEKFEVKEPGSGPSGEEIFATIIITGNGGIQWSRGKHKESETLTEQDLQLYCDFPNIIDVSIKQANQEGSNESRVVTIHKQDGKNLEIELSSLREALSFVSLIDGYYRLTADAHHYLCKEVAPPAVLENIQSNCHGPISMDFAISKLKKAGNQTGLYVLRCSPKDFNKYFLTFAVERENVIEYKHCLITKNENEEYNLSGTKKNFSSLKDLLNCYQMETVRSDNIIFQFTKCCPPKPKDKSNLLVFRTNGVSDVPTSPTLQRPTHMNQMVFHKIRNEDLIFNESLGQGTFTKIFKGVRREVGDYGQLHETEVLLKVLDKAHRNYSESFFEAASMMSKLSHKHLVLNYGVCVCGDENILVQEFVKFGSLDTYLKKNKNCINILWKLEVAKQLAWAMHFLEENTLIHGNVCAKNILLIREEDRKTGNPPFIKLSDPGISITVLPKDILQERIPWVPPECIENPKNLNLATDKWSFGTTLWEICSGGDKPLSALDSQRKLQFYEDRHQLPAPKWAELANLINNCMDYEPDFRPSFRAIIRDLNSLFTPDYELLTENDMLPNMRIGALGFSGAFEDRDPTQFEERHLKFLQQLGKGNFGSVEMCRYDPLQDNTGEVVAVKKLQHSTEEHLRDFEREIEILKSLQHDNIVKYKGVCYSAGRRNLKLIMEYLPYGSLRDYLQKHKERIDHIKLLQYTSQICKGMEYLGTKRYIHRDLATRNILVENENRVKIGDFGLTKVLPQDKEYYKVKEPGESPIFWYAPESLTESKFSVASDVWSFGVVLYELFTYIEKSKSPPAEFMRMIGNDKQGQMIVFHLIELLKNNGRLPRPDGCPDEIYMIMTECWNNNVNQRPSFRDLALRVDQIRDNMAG

| Sequence | phosphorylation enrichment [1] | phosphorylation enrichment [2] | phosphorylation enrichment [3] | phosphorylation enrichment [4] | phosphorylation enrichment [5] | phosphorylation enrichment [6] | phosphorylation enrichment [7] | phosphorylation enrichment [8] | phosphorylation enrichment [9] | phosphorylation enrichment [10] | phosphorylation enrichment [11] | phosphorylation enrichment [12] | phosphorylation enrichment [13] | SH2 binding enrichment [14] | SH2 binding enrichment [15] | SH2 binding enrichment [16] |
| --- | --- | --- | --- | --- | --- | --- | --- | --- | --- | --- | --- | --- | --- | --- | --- | --- |
| VNFDYYTVNLG [GFPT1_Y367_D366Y] | 5.81 | 9.69 | 6.6 | 6.01 | 1.25 | 5.83 | 14.5 | 4.22 | 5.41 | 15.6 | 4.7 | 1.36 | 4.02 | 0.741 | 1.46 | 1.04 |
| SSPQPYLVPFL [TAF4_Y652] | 0.857 | 2.85 | 0.415 | 0.466 | 0.78 | 0.497 | 0.746 | 0.481 | 0.867 | 0.522 | 0.49 | 1.09 | 0.514 | 0.829 | 1.66 | 0.86 |
| RLLRGHDQYAY [HLA-B_Y137] | 0.672 | 0.56 | 0.673 | 0.467 | 0.808 | 0.57 | 0.851 | 0.6 | 0.763 | 0.69 | 0.456 | 0.496 | 0.473 | 1.29 | 1.37 | 1.19 |
| SFSGEYGGGGG [ZG16_Y30_YF] | 0.62 | 0.47 | 0.392 | 0.413 | 0.571 | 0.348 | 0.35 | 0.397 | 0.467 | 0.496 | 0.423 | 0.505 | 0.306 | 0.471 | 0.543 | 0.663 |
| QTLTDYDIRFY [CSNK2A1_Y131] | 1.27 | 1.18 | 0.825 | 0.586 | 1.27 | 0.552 | 0.84 | 0.526 | 0.72 | 0.62 | 0.603 | 0.913 | 0.484 | 0.548 | 0.775 | 0.795 |
| FGRTFYNQANM [MCCC2_Y196_I200N] | 0.939 | 0.994 | 0.786 | 0.51 | 1.06 | 0.377 | 0.695 | 0.503 | 0.509 | 0.433 | 0.493 | 0.842 | 0.411 | 0.497 | 0.556 | 0.706 |
| MSRDIYSTDFF [NTRK1_Y676_YF] | 0.852 | 0.726 | 5.71 | 1.63 | 1.04 | 6.12 | 1.65 | 4.34 | 6.8 | 2.6 | 5.13 | 0.631 | 10.4 | 0.512 | 1.09 | 1.01 |
| WIPIQCPIISE [NOG_Y222_Y222C] | 1.31 | 1.12 | 0.818 | 0.54 | 1.41 | 0.551 | 1.04 | 0.563 | 0.591 | 0.54 | 0.433 | 0.836 | 0.373 | 0.513 | 0.885 | 0.871 |
| NDQPDYDSVAS [GIT2_Y392] | 1.3 | 1.23 | 0.63 | 0.558 | 1.19 | 0.546 | 0.76 | 0.735 | 0.671 | 0.522 | 0.992 | 0.849 | 0.511 | 0.658 | 0.767 | 0.902 |
| QNTVDYYDLYG [PTPN11_Y62_G60V] | 2.72 | 2.63 | 4.44 | 1.1 | 1.66 | 6.01 | 15.4 | 6.03 | 3.38 | 18.4 | 5.35 | 1.38 | 1.33 | 0.816 | 0.502 | 0.892 |
| KLIMECLPFGS [JAK2_Y931_Y931C_YF] | 1.24 | 1.57 | 0.969 | 0.622 | 1.39 | 0.619 | 0.858 | 0.652 | 0.588 | 0.576 | 0.611 | 0.96 | 0.521 | 0.559 | 0.491 | 0.706 |
| ACEVLYNIVFM [NCF2_Y125_A128V] | 2.4 | 1.59 | 1.17 | 8.66 | 1.93 | 1.55 | 2.03 | 2.95 | 1.16 | 1.8 | 2.18 | 1.84 | 3.19 | 0.403 | 0.733 | 0.798 |
| AVIADYMFWLG [SPATA16_Y290_M286V] | 2.25 | 3.42 | 6.08 | 2 | 1.3 | 0.852 | 10.7 | 1.34 | 12.4 | 13.1 | 1.17 | 1.17 | 2.51 | 1 | 1.4 | 1.42 |
| TFMKQYPKVFL [CNBD1_Y70] | 0.82 | 0.591 | 0.54 | 0.436 | 1.09 | 0.525 | 0.56 | 0.473 | 0.541 | 0.55 | 0.486 | 0.521 | 0.364 | 0.559 | 0.811 | 0.836 |
| RLSELYLRRNP [CFAP410_Y68_R73P] | 0.813 | 0.659 | 0.372 | 0.249 | 0.83 | 0.407 | 0.533 | 0.631 | 0.477 | 0.381 | 0.317 | 0.555 | 0.377 | 0.352 | 0.303 | 0.633 |
| KNNDGNIDFAE [MCFD2_Y135_Y135N_YF] | 1.07 | 1.21 | 0.504 | 0.525 | 1.26 | 0.558 | 0.683 | 0.539 | 0.673 | 0.447 | 0.462 | 1 | 0.589 | 0.6 | 0.834 | 0.912 |
| VNNTVYGIDAM [EIF3J_Y143_A141T] | 0.724 | 0.696 | 0.479 | 0.423 | 0.698 | 0.907 | 0.461 | 0.626 | 0.429 | 0.512 | 0.596 | 0.616 | 0.349 | 0.564 | 0.533 | 0.984 |

| Sequence | phosphorylation enrichment [1] | phosphorylation enrichment [2] | phosphorylation enrichment [3] | phosphorylation enrichment [4] | phosphorylation enrichment [5] | phosphorylation enrichment [6] | phosphorylation enrichment [7] | phosphorylation enrichment [8] | phosphorylation enrichment [9] | phosphorylation enrichment [10] | phosphorylation enrichment [11] | phosphorylation enrichment [12] | phosphorylation enrichment [13] | SH2 binding enrichment [14] | SH2 binding enrichment [15] | SH2 binding enrichment [16] |
| --- | --- | --- | --- | --- | --- | --- | --- | --- | --- | --- | --- | --- | --- | --- | --- | --- |
| KLIMEYLPYGS [JAK2_Y931] | 0.989 | 0.945 | 0.493 | 0.405 | 1.02 | 0.518 | 0.68 | 0.51 | 0.632 | 0.543 | 0.564 | 0.62 | 0.395 | 0.762 | 0.742 | 0.845 |
| PKFHSYVSLPF [PLXNA2_Y293] | 1.35 | 1.59 | 1.38 | 0.713 | 1.66 | 0.903 | 1.82 | 1.14 | 1.01 | 1.86 | 0.734 | 0.801 | 1.22 | 2.17 | 1.47 | 0.992 |
| GGGGGYNCSSG [FUS_Y232_R234C] | 0.563 | 0.614 | 0.402 | 0.415 | 0.666 | 0.41 | 0.626 | 0.411 | 0.432 | 0.378 | 0.355 | 0.534 | 0.342 | 0.574 | 0.613 | 0.928 |
| TDKLFYIFTSG [SLC27A4_Y243_YF] | 1.6 | 1.41 | 0.732 | 0.472 | 1.44 | 0.506 | 0.886 | 0.524 | 0.701 | 0.686 | 0.469 | 0.766 | 0.538 | 0.447 | 0.825 | 0.851 |
| FLAVGDHKPHI [IDS_Y225_Y225D] | 0.431 | 0.41 | 0.375 | 0.197 | 0.462 | 0.433 | 0.35 | 0.379 | 0.422 | 0.384 | 0.327 | 0.365 | 0.271 | 0.478 | 0.857 | 0.824 |
| FKGKKYKPLDL [RPL35_Y78_YF] | 0.577 | 0.486 | 0.421 | 0.481 | 0.571 | 0.467 | 0.413 | 0.48 | 0.361 | 0.376 | 0.533 | 0.544 | 0.337 | 0.479 | 0.571 | 0.849 |
| PELIDYGKLWK [ACTN1_Y193_R197W] | 1.31 | 0.761 | 0.718 | 0.531 | 1.26 | 0.601 | 0.766 | 0.393 | 0.683 | 0.535 | 0.59 | 0.912 | 0.522 | 0.538 | 0.989 | 0.958 |
| DGTESYHTVSS [PLK1_Y462_L463H] | 0.569 | 0.52 | 0.342 | 0.348 | 0.682 | 0.433 | 0.872 | 0.436 | 0.514 | 0.558 | 0.423 | 0.552 | 0.299 | 1.61 | 0.755 | 0.769 |
| MDDDQYALLTT [EFCAB6_Y675] | 1.39 | 0.996 | 0.677 | 0.736 | 1.26 | 0.64 | 1.18 | 0.956 | 0.785 | 1.1 | 0.64 | 0.732 | 0.632 | 0.695 | 0.544 | 0.841 |
| GASRRYGSGVS [NEU1_Y242_W240R] | 0.582 | 0.436 | 0.429 | 0.43 | 0.539 | 0.384 | 0.439 | 0.437 | 0.48 | 0.393 | 0.41 | 0.437 | 0.509 | 0.383 | 0.565 | 0.852 |
| AEVDTYCRHNF [HLA-DRB1_Y107_A103E_YF] | 0.988 | 0.719 | 0.594 | 0.813 | 0.935 | 0.567 | 0.61 | 0.6 | 0.556 | 0.532 | 0.509 | 0.618 | 0.473 | 0.454 | 0.696 | 0.826 |
| FDGGCYEQLFV [MC4R_Y41_S36Y_YF] | 2.53 | 1.43 | 1.09 | 10.7 | 1.49 | 1.81 | 1.33 | 2.67 | 1.07 | 1.05 | 2.46 | 0.748 | 0.875 | 0.485 | 0.654 | 0.709 |
| ATARPYSPYII [LRP5_Y1528_R1529S] | 0.646 | 0.668 | 0.473 | 6.92 | 0.731 | 0.934 | 0.727 | 0.456 | 0.192 | 0.351 | 1.02 | 0.544 | 0.375 | 0.619 | 0.764 | 0.838 |
| GDPTEYFITAI [IGSF22_Y501_S503I_YF] | 1.55 | 1.31 | 0.584 | 0.404 | 1.08 | 0.445 | 1.11 | 0.461 | 0.644 | 1.07 | 0.555 | 0.911 | 0.482 | 0.499 | 0.467 | 0.786 |
| AGQEDYDRLRP [CDC42_Y64] | 1.13 | 0.839 | 0.598 | 0.508 | 1.07 | 0.546 | 0.69 | 0.785 | 0.654 | 0.576 | 0.452 | 0.689 | 0.471 | 0.609 | 0.698 | 0.825 |
| CTTIHYFFMCN [TP53_Y234_N235Y_YF] | 0.966 | 1.07 | 0.515 | 0.384 | 0.982 | 0.424 | 0.635 | 0.37 | 0.534 | 0.413 | 0.279 | 0.662 | 0.309 | 0.553 | 0.883 | 0.894 |
